Experimental data as given in publication PMC4122225 (2014).

What was measured:
Experiment in all cases: ELISA
[1] = molecular target: Apolipoprotein E3 (LipoE3) (Homo sapiens, UniProt P02649)
[2] = molecular target: Apolipoprotein E4 (LipoE4) (Homo sapiens, UniProt P02649)
[3] = molecular target: Apolipoprotein E2 (LipoE2) (Homo sapiens, UniProt P02649)
Chain of Apolipoprotein E2 (LipoE2) (P02649 19-317): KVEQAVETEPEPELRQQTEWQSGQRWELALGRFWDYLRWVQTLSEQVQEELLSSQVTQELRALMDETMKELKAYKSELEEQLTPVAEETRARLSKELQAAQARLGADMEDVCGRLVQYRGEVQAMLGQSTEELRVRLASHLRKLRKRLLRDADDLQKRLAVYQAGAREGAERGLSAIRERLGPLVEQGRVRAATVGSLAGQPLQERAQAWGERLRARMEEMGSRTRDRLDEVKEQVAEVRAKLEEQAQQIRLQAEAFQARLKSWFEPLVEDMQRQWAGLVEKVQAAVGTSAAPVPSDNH

Chain of Apolipoprotein E3 (LipoE3) (P02649 19-317): as above
Chain of Apolipoprotein E4 (LipoE4) (P02649 19-317): as above

B1: Haptoglobin (phenotype 1-1) (protein)
chain 1: VDSGNDVTDIADDGCPKPPEIAHGYVEHSVRYQCKNYYKLRTEGDGVYTLNDKKQWINKAVGDKLPECEADDGCPKPPEIAHGYVEHSVRYQCKNYYKLRTEGDGVYTLNNEKQWINKAVGDKLPECEAVCGKPKNPANPVQ
chain 2: ILGGHLDAKGSFPWQAKMVSHHNLTTGATLINEQWLLTTAKNLFLNHSENATAKDIAPTLTLYVGKKQLVEIEKVVLHPNYSQVDIGLIKLKQKVSVNERVMPICLPSKDYAEVGRVGYVSGWGRNANFKFTDHLKYVMLPVADQDQCIRHYEGSTVPEKKTPKSPVGVQPILNEHTFCAGMSKYQEDTCYGDAGSAFAVHDLEEDTWYATGILSFDKSCAVAEYGVYVKVTSIQDWVQKTIAEN
modifications: ApoE3 isoform, lecithin liposome-associated
Kd [1]: 59.6 nM

B2: Haptoglobin (phenotype 1-1) (protein)
chain 1: B1 chain 1
chain 2: B1 chain 2
modifications: ApoE4 isoform, lecithin liposome-associated
Kd [2]: 54.9 nM

B3: Haptoglobin (phenotype 1-1) (protein)
chain 1: B1 chain 1
chain 2: B1 chain 2
modifications: ApoE2 isoform, lecithin liposome-associated
Kd [3]: 58.2 nM
